Results: paper PMC10433997, “Highly Cross-Reactive and Protective Influenza A Virus H3N2 Hemagglutinin- and Neuraminidase-Specific Human Monoclonal Antibodies” (Microbiology Spectrum, 2023)
Changes are numbered by the printed parent chain.

B1: 1092E4 H3-specific human monoclonal antibody (antibody, V domains shown)
VH: QVQLVQSGAEVKKPGASVKVSCKASGYSFTRYGISWVRQAPGQGLEWMGWISAYTGNTDYAQKFQGRITMTTDTSTSTVYMELRSLRSDDTAVYYCARDHPQGVVILGSYYYGMDVWGQGNTVTVSS
VL: EIVLTQSPGTLSLSPGERATLSCRASQSVTSRYLAWYQQKLGQAPRLLIYGASSRATGIPDRFSGSGSGTDFTLTISSLEPEDFAVYYCQQSGSPRTFGQGTKVEIK
notes: also called H3 hMAb 1092E4; source: HEK293T, transfected; IgG captured and eluted from Magne protein A beads
B2: 1092C4 H3-specific human monoclonal antibody (antibody, V domains shown)
VH: B1 VH with Q1E, V79A, H100L
VL: B1 VL with F84L
notes: also called H3 hMAb 1092C4; source: HEK293T, transfected; IgG captured and eluted from Magne protein A beads

Key:
[1] = target: T1, H3 hemagglutinin protein of A/Brisbane/10/2007 H3N2 (Influenza A virus A/Brisbane/10/2007 …, UniProt A8W8K8, strain); assay: cell-based or functional assay
[2] = target: T2, hemagglutinin (HA) of A/Switzerland/9715283/2013 H3N2 (Influenza A virus …, strain); assay: cell-based or functional assay
[3] = target: recombinant hemagglutinin (HA) of A/Netherlands/219/03 H7N7 (Influenza A virus …, UniProt Q6VMK1, strain); assay: ELISA; conditions: both partners purified
[4] = target: T3, hemagglutinin (HA) of A/Hong Kong/1/1968 H3N2 (Influenza A virus A/Hong Kong/1/1968 …, UniProt Q91MA7); assay: immunostaining of cells or tissue; conditions: one partner purified
T3 construct: source: MDCK cells infected with the virus (BEI Resources)

[5] = target: T1, H3 hemagglutinin protein of …; assay: cell-based or functional assay; remark: listed apart in the source
[6] = target: T2, hemagglutinin (HA) of …; assay: cell-based or functional assay; remark: listed apart in the source

Binder	hemagglutination inhibition (HAI) IC50, virus A/Brisbane/10/2007 H3N2 [1] [µg/mL]	hemagglutination inhibition (HAI) IC50, virus A/Switzerland/9715293/2013 H3N2 [2] [µg/mL]	binding result [3]	binding result [4]	microneutralization IC50, virus A/Brisbane/10/2007 H3N2 [5] [µg/mL]	microneutralization IC50, virus A/Switzerland/9715293/2013 H3N2 [6] [µg/mL]
B1	3.13	50	binds	binds	0.1	6.25
B2	< 0.05	50	binds	binds	0.1	0.78
